{"source": "paper PMC5966876"}
{"biological_target": "cyclin T1 (UniProt O60563)", "sequence (O60563 whole entry)": "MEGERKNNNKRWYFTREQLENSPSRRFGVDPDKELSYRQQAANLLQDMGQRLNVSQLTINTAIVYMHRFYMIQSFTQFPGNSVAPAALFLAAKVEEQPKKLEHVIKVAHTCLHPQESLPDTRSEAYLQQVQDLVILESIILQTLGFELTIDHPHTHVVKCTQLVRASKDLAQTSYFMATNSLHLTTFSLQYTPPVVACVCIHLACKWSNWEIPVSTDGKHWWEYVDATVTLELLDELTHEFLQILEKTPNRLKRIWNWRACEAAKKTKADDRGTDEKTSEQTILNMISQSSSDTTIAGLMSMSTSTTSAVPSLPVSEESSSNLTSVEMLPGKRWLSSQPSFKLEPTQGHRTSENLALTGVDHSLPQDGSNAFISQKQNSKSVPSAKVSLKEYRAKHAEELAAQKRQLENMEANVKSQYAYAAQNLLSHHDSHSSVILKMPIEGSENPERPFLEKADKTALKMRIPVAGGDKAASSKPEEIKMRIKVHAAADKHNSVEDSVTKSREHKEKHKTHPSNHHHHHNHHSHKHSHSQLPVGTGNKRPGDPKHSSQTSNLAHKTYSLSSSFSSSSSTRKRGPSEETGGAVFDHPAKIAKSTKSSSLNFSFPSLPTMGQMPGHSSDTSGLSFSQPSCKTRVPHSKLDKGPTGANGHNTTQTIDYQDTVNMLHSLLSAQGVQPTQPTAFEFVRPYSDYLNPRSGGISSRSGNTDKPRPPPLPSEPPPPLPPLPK", "assay": "co-immunoprecipitation (anti-Flag IP, western blot quantification)", "conditions": "293T cells, lysed at 48 h posttransfection; 12% SDS-PAGE; parent: est. 100; read off a plot"}
{"substance": "Flag-tagged HIV-1 Tat (WT) S16A", "percent of parent": "48 % of WT Tat"}
{"substance": "Flag-tagged HIV-1 Tat (WT) S16D", "percent of parent": "20 % of WT Tat"}
{"substance": "Flag-tagged HIV-1 Tat (WT) S46A", "percent of parent": "45 % of WT Tat"}
{"substance": "Flag-tagged HIV-1 Tat (WT) S46D", "percent of parent": "22 % of WT Tat"}
